The source of these data is PMC4428629, “The Structure of an NDR/LATS Kinase–Mob Complex Reveals a Novel Kinase–Coactivator System and Substrate Docking Mechanism” (PLoS Biology, 2015).

Non-standard residues stand in square brackets, D forms with d. Residues, ends and D or L forms follow the SMILES beside them. No end group written: not given here. carboxyfluorescein = carboxyfluorescein label; pT = C[C@@H](OP(=O)(O)O)[C@H](N)C(=O)O

Assay [1] has as its target pepAce2, carboxyfluorescein-labelled (S. cerevisiae). Nature of the assay: fluorescence polarisation; direct titration: protein titrated into 20 nM carboxyfluorescein-labelled peptide; 20 mM Tris (pH 8.0), 100 mM NaCl, 0.05% Brij35P, 2 mM DTT; quadratic binding equation. Background: Polarisation of emitted light reports the rotation of a fluorescent probe.
The subject of a further assay is Cbk1–Mob2. In words: In vitro pulldown of Cbk1–Mob2. The class given is binding, Saccharomyces cerevisiae. To be noted: in vitro binding (Figs 4B, S5A, S5E). The method, then: Cbk1 substrates containing the docking motifs or substrate sites were bacterially expressed as MBP or GST fusions. For pulldown assays, MBP-fusion lysates were incubated with amylose resin (New England Biolabs) on ice for 15 min, followed by washing with PBS (137 mM NaCl, 2.7 mM KCl, 4.3 mM Na2HPO4, 1.4 mM KH2PO4 [pH 7.3]). GST fusions were purified on glutathione Sepharose beads followed by dialysis into Cbk1 buffer.
MBP fusions were incubated on bead with 1 μM purified Cbk1 on ice for 15 min. Samples were washed 3× with PBS (transferred to fresh tube on last wash), resuspended in SDS-PAGE buffer, and separated by SDS-PAGE. Samples were directly visualized with GelCode Blue (Pierce) or transferred to PVDF membrane for immunoblotting. Cbk1 was detected using His or pS570 primary antibodies. For experiments detected using α-pS570, antibody signal with pure protein was analyzed to control for lot-dependent variations in expression as well as variations between Cbk1 mutants (no variations detected).

In another assay the target is T1, Cbk1^Δ730–756–Mob2 (Saccharomyces cerevisiae, UniProt P43563+P53894).
T1 construct: His6-Cbk1^251–756 was co-expressed with GST-Mob2 (full length or 45–287); His6 (N); made in house
T1 sequence (P43563 whole entry, stated change not applied, one chain of several): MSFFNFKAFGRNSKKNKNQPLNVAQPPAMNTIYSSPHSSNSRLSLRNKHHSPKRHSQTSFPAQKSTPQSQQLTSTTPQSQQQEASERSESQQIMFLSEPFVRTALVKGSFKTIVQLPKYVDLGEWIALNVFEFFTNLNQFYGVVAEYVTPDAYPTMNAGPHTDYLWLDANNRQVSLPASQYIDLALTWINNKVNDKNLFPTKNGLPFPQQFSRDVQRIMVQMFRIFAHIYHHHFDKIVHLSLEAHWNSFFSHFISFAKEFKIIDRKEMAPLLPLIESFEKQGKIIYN
In words: biochemical. The class given is binding. The source says: ND, not determined. […] (PDF) Click here for additional data file.

The subject of a further assay is Cbk1(Y687A/T743E). In words: Peptide kinase assay, Cbk1(Y687A/T743E). The class given is biochemical, Saccharomyces cerevisiae. To be noted: for 32P incorporation into peptide, Average: Average of Rep 1-4, 100 μM peptide, 50 nM kinase, 40 μM ATP, 1 h. The protocol: (§1) For peptide kinase assays, reactions were performed in the presence of 50 nM Cbk1^251–756–Mob2, 40 μM ATP, 2 mM DTT, 5 mM MnCl2, 2 μCi γ-^32P-ATP, and 100 μM Docktide ([…]) or AKAPtide ([…]). Reactions were initiated by the addition of ATP. Samples were quenched after 1 h by the addition of a 5-μl sample to P81 paper (Whatman) and subsequent submersion in 75 mM phosphoric acid to remove background γ-^32P-ATP. After drying, signal was determined by Čerenkov counting in an LS 6500 scintillation counter (Beckman). Counts per minute was efficiency corrected and converted to femtomoles ^32P followed by conversion to total ATP (labeled and unlabeled). Significance was determined by an unpaired two-tailed Student’s t-test.
(§2) Supplementary file pbio.1002146.s003.xlsx: S3 Data Enzymological characterization of the effects of Cbk1 docking. Assay data from experiments that used γ-^32P-ATP in protein kinase reactions with synthetic substrate peptides from Ssd1 that either contained both the core Cbk1 docking motif and a Cbk1 phosphorylation consensus motif (Docktide) or contained a core Cbk1 docking motif mutated to abrogate binding to the kinase and a Cbk1 consensus motif (AKAPtide). These kinase assays were performed either with Cbk1(T743E) or with Cbk1(Y687A/T743E). The latter construct carries a mutation that eliminates docking motif association with the kinase. (XLSX) Click here for additional data file.

Assay [2] deals with Cbk1^251–756–Mob2 (T743E). Nature of the assay: Peptide kinase assay, WT Cbk1 (T743E). To be noted: for 32P incorporation into peptide, Average: Average of Rep 1-4, 100 μM peptide, 50 nM kinase, 40 μM ATP, 1 h. The class given is biochemical, Saccharomyces cerevisiae. The method, then:
as §1, §2

A further assay has as its target Cbk1(Y687A)–Mob2 complex (S. cerevisiae, UniProt P53894 251-756; P43563 1-287, Y687A). Nature of the assay: FP.
The target of another assay is Cbk1(W444A)–Mob2 complex (S. cerevisiae, UniProt P53894 251-756; P43563 1-287, W444A). In words: FP.
Chain of Cbk1(W444A)–Mob2 complex (P53894 251-756 W444A, chain 1 of 2, one chain of several): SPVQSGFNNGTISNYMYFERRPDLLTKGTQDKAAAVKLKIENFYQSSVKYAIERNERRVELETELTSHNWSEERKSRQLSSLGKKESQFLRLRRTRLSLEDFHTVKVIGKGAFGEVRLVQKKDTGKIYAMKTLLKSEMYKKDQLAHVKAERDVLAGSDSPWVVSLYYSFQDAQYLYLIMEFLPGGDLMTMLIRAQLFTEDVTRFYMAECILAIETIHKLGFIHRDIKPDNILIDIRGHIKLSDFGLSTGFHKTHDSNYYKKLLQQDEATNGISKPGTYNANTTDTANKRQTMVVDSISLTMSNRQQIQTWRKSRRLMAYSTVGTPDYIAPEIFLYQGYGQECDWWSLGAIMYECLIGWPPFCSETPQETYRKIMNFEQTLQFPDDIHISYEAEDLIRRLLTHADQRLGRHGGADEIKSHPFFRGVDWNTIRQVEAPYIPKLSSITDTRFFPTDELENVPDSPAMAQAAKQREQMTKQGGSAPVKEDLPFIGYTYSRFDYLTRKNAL
The target in assay [3] is T2, Cbk1^251–756–Mob2 complex (S. cerevisiae, UniProt P53894 251-756; P43563 1-287).
T2 chain 1: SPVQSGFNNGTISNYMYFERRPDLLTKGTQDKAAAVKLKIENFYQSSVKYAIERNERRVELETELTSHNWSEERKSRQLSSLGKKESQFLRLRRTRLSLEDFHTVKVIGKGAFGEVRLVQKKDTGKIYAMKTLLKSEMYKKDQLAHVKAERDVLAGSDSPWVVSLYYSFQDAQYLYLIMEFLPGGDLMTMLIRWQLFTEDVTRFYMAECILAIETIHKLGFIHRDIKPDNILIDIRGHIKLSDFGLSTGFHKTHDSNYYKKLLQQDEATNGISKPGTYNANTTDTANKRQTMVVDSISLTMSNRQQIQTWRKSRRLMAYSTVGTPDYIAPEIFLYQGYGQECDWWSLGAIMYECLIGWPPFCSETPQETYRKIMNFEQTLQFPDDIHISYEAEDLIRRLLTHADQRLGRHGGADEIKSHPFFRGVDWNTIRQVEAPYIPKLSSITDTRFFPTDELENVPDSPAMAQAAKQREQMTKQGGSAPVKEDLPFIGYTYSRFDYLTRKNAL
T2 chain 2: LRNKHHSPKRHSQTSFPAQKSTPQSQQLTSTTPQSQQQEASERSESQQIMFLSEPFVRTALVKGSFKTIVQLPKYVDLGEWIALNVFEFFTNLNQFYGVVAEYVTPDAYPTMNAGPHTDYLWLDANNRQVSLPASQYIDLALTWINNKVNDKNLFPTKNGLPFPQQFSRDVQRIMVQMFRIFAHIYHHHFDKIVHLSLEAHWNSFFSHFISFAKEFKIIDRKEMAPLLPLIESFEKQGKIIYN
In words: FP.

The target in a further assay is Cbk1(F699A)–Mob2 complex (S. cerevisiae, UniProt P53894 251-756; P43563 1-287, F699A). Nature of the assay: FP.
The target in assay [4] is T3, Cbk1^352–756 kinase domain (S. cerevisiae, UniProt P53894 352-756).
T3 construct: source: bacterially expressed, purified (Ni-NTA, glutathione Sepharose); not shown: His6, C-terminal, kept
T3 sequence (looked up): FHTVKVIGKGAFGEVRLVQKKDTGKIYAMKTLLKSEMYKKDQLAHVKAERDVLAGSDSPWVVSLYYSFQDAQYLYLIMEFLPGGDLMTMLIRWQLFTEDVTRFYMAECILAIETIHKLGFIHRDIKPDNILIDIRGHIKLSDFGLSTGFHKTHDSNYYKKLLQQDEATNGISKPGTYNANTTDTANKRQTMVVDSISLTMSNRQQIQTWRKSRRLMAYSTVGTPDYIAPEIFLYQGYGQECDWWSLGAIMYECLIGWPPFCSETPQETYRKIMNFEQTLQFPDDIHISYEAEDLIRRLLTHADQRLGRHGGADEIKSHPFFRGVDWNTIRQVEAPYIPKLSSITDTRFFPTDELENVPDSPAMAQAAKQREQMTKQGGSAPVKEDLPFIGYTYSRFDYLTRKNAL
In words: pull-down; pull-down of Cbk1^352–756 by bead-bound Ace2 or Ssd1 docking motifs in competition with unbound Ace2^270–290. To be noted: both partners purified.

In a further assay the target is Cbk1(F447A)–Mob2 complex (S. cerevisiae, UniProt P53894 251-756; P43563 1-287, F447A). Nature of the assay: FP.
Chain of Cbk1(F447A)–Mob2 complex (P53894 251-756 F447A, chain 1 of 2, one chain of several): as the sequence (P53894 251-756 W444A, chain 1 of 2, one chain of several) above, with A194W, F197A counted along it

Chain of Cbk1(Y687A)–Mob2 complex (P53894 251-756 Y687A, chain 1 of 2, one chain of several): as the sequence (P53894 251-756 W444A, chain 1 of 2, one chain of several) above, with A194W, Y437A counted along it

The Kd is the equilibrium constant for the complex coming apart. A lower Kd goes with a tighter complex. “Cbk1^251–756–Mob2 complex (from UniProt P53894 251-756; P43563 1-287)” had a Kd in assay [1] of 6 µM.
On to “15-amino-acid peptide from Ace2: 15-amino-acid peptide from Ace2 with the sequence YQFP at its C-terminal end (IIVTTNSANGGYQFP; also: MBP fusion, end not given here)”, for which the “association with Cbk1–Mob2” value with Cbk1–Mob2 is given as “associates with the Cbk1–Mob2 complex”.
For `CC[C@H](C)[C@H](N)C(=O)NCC(=O)N[C@@H](Cc1ccc(O)cc1)C(=O)N[C@H](C(=O)N[C@@H](Cc1ccc(O)cc1)C(=O)N[C@@H](CO)C(=O)N[C@@H](CCCNC(=N)N)C(=O)N[C@@H](Cc1ccccc1)C(=O)N[C@@H](CC(=O)O)C(=O)N[C@@H](Cc1ccc(O)cc1)C(=O)O)[C@@H](C)O` [pepHM] (H-IGYTYSRFDY-OH), the Kd at Cbk1^Δ730–756–Mob2 was approximately 33 µM.
On to “CDFKFPPPPNAHGGHRRATSN [Docktide, Ssd1 (210–229)-based peptide with docking motif FKFP and Cbk1 consensus site]”, for which the “32P incorporation into peptide, Average” value was determined as 45.9 fmol in the assay with Cbk1(Y687A/T743E) and 76.8 fmol in assay [2]. The “effect of WT docking motif on phosphorylation” value in the assay with Cbk1(Y687A/T743E) (Cbk1(Y687A)) is given as “loses this enhancement”; in assay [2] (relative to peptide with mutant docking motif (AKAPtide)), “enhances phosphorylation by WT Cbk1”.
Take “CDAKAPPPPNAHGGHRRATSN [AKAPtide, Ssd1-based peptide with mutated docking motif AKAP and Cbk1 consensus site]”: the “32P incorporation into peptide, Average” value in the assay on Cbk1(Y687A/T743E) is 45.5 fmol; in assay [2] it was 57.4 fmol.
As for carboxyfluorescein-TTEQSDFKFP [pepSSD1, carboxyfluorescein-labelled], the Kd in the assay with Cbk1(Y687A)–Mob2 complex worked out at 36 µM; with Cbk1(W444A)–Mob2 complex it was 58 µM; in assay [3], 6 µM; in the assay with Cbk1(F699A)–Mob2 complex it was 4.9 µM.
In the case of NAIIVTTNSANGGYQFPPPTL (domain or fragment, S. cerevisiae, UniProt P21192 270-290, looked up) [unbound Ace2^270–290], the binding result in assay [4] is given as “binds”.
For IGY[pT]YSRFDY-carboxyfluorescein [pepHM-P, carboxyfluorescein-labelled], the Kd in the assay with Cbk1(Y687A)–Mob2 complex worked out at 22 µM; with Cbk1(W444A)–Mob2 complex it was 24 µM; in [3] it was 20 µM; in the assay with Cbk1(F447A)–Mob2 complex, 33 µM; with Cbk1(F699A)–Mob2 complex, 28 µM.
